Laboratory results reported in patent US8367390B2, “Galactanase variants” (Novozymes A/S, priority 2002, dated 2013).
Where two headings read alike, the source gives them in different places.

Tests used:
[1] = Activity on galactobiose (Gal2); format: biochemical; settings: in 24 hours; buffer, pH and temperature per enzyme
Procedure: (§1) The activity on the galacto-oligosaccharide substrates prepared as described above and on the commercially available galactobiose (Gal2, Megazyme) was studied for the four purified galactanases HIGAL, MTGAL, AAGAL and BLGAL. The buffers and temperatures used were: 25 mM sodium acetate, 0.5 mM CaCl2, 0.005% Triton X-100, pH 6.5 at 37° C. for HIGAL and MTGAL, 50 mM sodium acetate, 1 mM CaCl2, pH 4 at 30° C. for AAGAL and 50 mM Mes, 1 mM CaCl2, pH 6.5 at 30° C. for BLGAL. Enzyme concentrations used were 0.8 μg/ml for HIGAL, 0.2 microgram/ml for MTGAL, and 10 micrograms/ml for AAGAL and BLGAL. With HIGAL and MTGAL substrate concentrations were all 0.25 mg/ml, whereas 0.34 mg/ml Gal2, 0.050 mg/ml Gal3 and 0.067 mg/ml Gal4 were used for AAGAL and BLGAL. Enzyme activity in samples withdrawn after various incubation times was inactivated by heating to 95° C. for 10 min. Compositions of reaction products were analysed using HPAE-PAD (Dionex) applying a PA-100 column and a linear gradient of sodium acetate (0-0.18 M) in 0.15 M NaOH. Response factors of the individual carbohydrates were estimated from reference runs with MeGal3, MeGal4, Gal, Gal2, Gal3 and Gal4. Selected results are shown in Tables 2-8 below (the figures indicating weight percentage of glactooligosaccharides).

[2] = Activity on galactotriose (Gal3); format: biochemical; settings: up to 24 hours; buffer, pH and temperature per enzyme
Procedure: as §1

[3] = format: biochemical; settings: for Gal2 in reaction products / Gal3 in reaction products / Gal4 in reaction products / Gal in reaction products: Gal4 0.25 mg/ml, pH 6.5, 37° C.
Procedure: as §1

[4] = Degradation of MeGal4, products by HPAE-PAD; format: biochemical; settings: for Gal2 in reaction products / Gal3 in reaction products / Gal4 in reaction products / Gal in reaction products / MeGal2 in reaction products / MeGal3 in reaction products / MeGal4 in reaction products / MeGal in reaction products: MeGal4 0.25 mg/ml, pH 6.5, 37° C.
Procedure: as §1

[5] = Degradation of MeGal3, products by HPAE-PAD; format: biochemical; settings: for Gal2 in reaction products / Gal3 in reaction products / Gal in reaction products / MeGal2 in reaction products / MeGal3 in reaction products / MeGal in reaction products: MeGal3 0.25 mg/ml, pH 6.5, 37° C.
Procedure: as §1

B1: HIGAL: GH Family 53 galactanase from Humicola insolens, SEQ ID NO: 2 (wild type parent) (protein, listed as Humicola insolens)
chain: ALQYKGVDWSSVMVEERAGVRYKNVNGQEKPLEYILAENGVNMVRQRVWVNPWDGNYNLDYNIQLARRAKAAGLGLYINFHYSDTWADPAHQTTPAGWPSDINNLAWKLYNYTLDSMNRFADAGIQVDIVSIGNEITQGLLWPLGKTNNWYNIARLLHSAAWGVKDSRLNPKPKIMVHLDNGWNWDTQNWWYTNVLSQGPFEMSDFDMMGVSFYPFYSASATLDSLRRSLNNMVSRWGKEVAVVETNWPTSCPYPRYQFPADVRNVPFSAAGQTQYIQSVANVVSSVSKGVGLFYWEPAWIHNANLGSSCADNTMFTPSGQALSSLSVFHRI
modifications: mat_peptide (1)..()
In the case of B1, the “Activity on Gal2” value [1] is reported as “Neither of the enzymes HIGAL, MTGAL, AAGAL or BLGAL had any detectable activity”, the “Activity on Gal3, products” value [2] is reported as “degraded Gal3 to Gal2 and Gal” and the “Products of Gal4 (galactotetraose) degradation” value [3] is reported as “mainly to Gal and Gal2, whereas Gal3 did not accumulate”. For the same molecule, the “Gal2 in reaction products” value ([3]; incubation time 0.0 hours) was 0.0 weight percentage, the “Gal3 in reaction products” value ([3]; incubation time 0.0 hours) was 42.0 weight percentage and the “Gal4 in reaction products” value ([3]; incubation time 0.0 hours) was 58.0 weight percentage. For the same molecule, the “Gal in reaction products” value ([3]; incubation time 0.0 hours) was 0.0 weight percentage, the “Gal2 in reaction products” value ([3]; incubation time 0.5 hours) was 8.1 weight percentage and the “Gal3 in reaction products” value ([3]; incubation time 0.5 hours) was 43.2 weight percentage. For the same molecule, the “Gal4 in reaction products” value ([3]; incubation time 0.5 hours) was 42.9 weight percentage, the “Gal in reaction products” value ([3]; incubation time 0.5 hours) was 5.8 weight percentage and the “Gal2 in reaction products” value ([3]; incubation time 2.2 hours) was 21.9 weight percentage. For the same molecule, the “Gal3 in reaction products” value ([3]; incubation time 2.2 hours) was 39.8 weight percentage, the “Gal4 in reaction products” value ([3]; incubation time 2.2 hours) was 21.6 weight percentage and the “Gal in reaction products” value ([3]; incubation time 2.2 hours) was 16.7 weight percentage. The “Gal2 in reaction products” value ([3]; incubation time 5.0 hours) was 34.8 weight percentage, the “Gal3 in reaction products” value ([3]; incubation time 5.0 hours) was 23.9 weight percentage and the “Gal4 in reaction products” value ([3]; incubation time 5.0 hours) was 5.7 weight percentage. The “Gal in reaction products” value ([3]; incubation time 5.0 hours) was 35.6 weight percentage, the “Gal2 in reaction products” value ([3]; incubation time 72.0 hours) was 33.6 weight percentage and the “Gal3 in reaction products” value ([3]; incubation time 72.0 hours) was 0.9 weight percentage. For the same molecule, the “Gal4 in reaction products” value ([3]; incubation time 72.0 hours) was 0.2 weight percentage, the “Gal in reaction products” value ([3]; incubation time 72.0 hours) was 65.2 weight percentage and the “Gal2 in reaction products” value ([4]; incubation time 0.0 hours) was 0.0 weight percentage. For the same molecule, the “Gal3 in reaction products” value ([4]; incubation time 0.0 hours) was 0.0 weight percentage, the “Gal4 in reaction products” value ([4]; incubation time 0.0 hours) was 0.0 weight percentage and the “Gal in reaction products” value ([4]; incubation time 0.0 hours) was 0.0 weight percentage. For the same molecule, the “MeGal2 in reaction products” value ([4]; incubation time 0.0 hours) was 4.7 weight percentage, the “MeGal3 in reaction products” value ([4]; incubation time 0.0 hours) was 14.8 weight percentage and the “MeGal4 in reaction products” value ([4]; incubation time 0.0 hours) was 79.0 weight percentage. The “MeGal in reaction products” value ([4]; incubation time 0.0 hours) was 1.6 weight percentage, the “Gal2 in reaction products” value ([4]; incubation time 0.5 hours) was 6.3 weight percentage and the “Gal3 in reaction products” value ([4]; incubation time 0.5 hours) was 20.6 weight percentage. For the same molecule, the “Gal4 in reaction products” value ([4]; incubation time 0.5 hours) was 3.3 weight percentage, the “Gal in reaction products” value ([4]; incubation time 0.5 hours) was 2.3 weight percentage and the “MeGal2 in reaction products” value ([4]; incubation time 0.5 hours) was 12.6 weight percentage. The “MeGal3 in reaction products” value ([4]; incubation time 0.5 hours) was 17.2 weight percentage, the “MeGal4 in reaction products” value ([4]; incubation time 0.5 hours) was 25.5 weight percentage and the “MeGal in reaction products” value ([4]; incubation time 0.5 hours) was 12.1 weight percentage. The “Gal2 in reaction products” value ([4]; incubation time 2.0 hours) was 5.0 weight percentage, the “Gal3 in reaction products” value ([4]; incubation time 2.0 hours) was 16.0 weight percentage and the “Gal4 in reaction products” value ([4]; incubation time 2.0 hours) was 3.2 weight percentage. The “Gal in reaction products” value ([4]; incubation time 2.0 hours) was 1.6 weight percentage, the “MeGal2 in reaction products” value ([4]; incubation time 2.0 hours) was 13.2 weight percentage and the “MeGal3 in reaction products” value ([4]; incubation time 2.0 hours) was 18.4 weight percentage. For the same molecule, the “MeGal4 in reaction products” value ([4]; incubation time 2.0 hours) was 32.1 weight percentage, the “MeGal in reaction products” value ([4]; incubation time 2.0 hours) was 10.5 weight percentage and the “Gal2 in reaction products” value ([4]; incubation time 5.0 hours) was 13.8 weight percentage. The “Gal3 in reaction products” value ([4]; incubation time 5.0 hours) was 19.7 weight percentage, the “Gal4 in reaction products” value ([4]; incubation time 5.0 hours) was 3.2 weight percentage and the “Gal in reaction products” value ([4]; incubation time 5.0 hours) was 7.4 weight percentage. The “MeGal2 in reaction products” value ([4]; incubation time 5.0 hours) was 16.1 weight percentage, the “MeGal3 in reaction products” value ([4]; incubation time 5.0 hours) was 15.5 weight percentage and the “MeGal4 in reaction products” value ([4]; incubation time 5.0 hours) was 7.6 weight percentage. For the same molecule, the “MeGal in reaction products” value ([4]; incubation time 5.0 hours) was 16.6 weight percentage, the “Gal2 in reaction products” value ([4]; incubation time 24.0 hours) was 25.3 weight percentage and the “Gal3 in reaction products” value ([4]; incubation time 24.0 hours) was 9.1 weight percentage. For the same molecule, the “Gal4 in reaction products” value ([4]; incubation time 24.0 hours) was 1.7 weight percentage, the “Gal in reaction products” value ([4]; incubation time 24.0 hours) was 26.4 weight percentage and the “MeGal2 in reaction products” value ([4]; incubation time 24.0 hours) was 13.4 weight percentage. For the same molecule, the “MeGal3 in reaction products” value ([4]; incubation time 24.0 hours) was 5.0 weight percentage, the “MeGal4 in reaction products” value ([4]; incubation time 24.0 hours) was 0.0 weight percentage and the “MeGal in reaction products” value ([4]; incubation time 24.0 hours) was 19.1 weight percentage. For the same molecule, the “Products from MeGal4” value ([4]; in words, buffer, pH and temperature per enzyme) was “initial release mainly of MeGal, MeGal2 and Gal3 and some Gal2 but little Gal”, the “Gal2 in reaction products” value ([5]; incubation time 0.0 hours) was 0.0 weight percentage and the “Gal3 in reaction products” value ([5]; incubation time 0.0 hours) was 0.0 weight percentage. The “Gal in reaction products” value ([5]; incubation time 0.0 hours) was 0.0 weight percentage, the “MeGal2 in reaction products” value ([5]; incubation time 0.0 hours) was 0.0 weight percentage and the “MeGal3 in reaction products” value ([5]; incubation time 0.0 hours) was 100.0 weight percentage. For the same molecule, the “MeGal in reaction products” value ([5]; incubation time 0.0 hours) was 0.0 weight percentage, the “Gal2 in reaction products” value ([5]; incubation time 0.5 hours) was 3.9 weight percentage and the “Gal3 in reaction products” value ([5]; incubation time 0.5 hours) was 1.2 weight percentage. For the same molecule, the “Gal in reaction products” value ([5]; incubation time 0.5 hours) was 0.0 weight percentage, the “MeGal2 in reaction products” value ([5]; incubation time 0.5 hours) was 3.3 weight percentage and the “MeGal3 in reaction products” value ([5]; incubation time 0.5 hours) was 80.3 weight percentage. For the same molecule, the “MeGal in reaction products” value ([5]; incubation time 0.5 hours) was 11.4 weight percentage, the “Gal2 in reaction products” value ([5]; incubation time 2.2 hours) was 12.5 weight percentage and the “Gal3 in reaction products” value ([5]; incubation time 2.2 hours) was 3.3 weight percentage. For the same molecule, the “Gal in reaction products” value ([5]; incubation time 2.2 hours) was 2.3 weight percentage, the “MeGal2 in reaction products” value ([5]; incubation time 2.2 hours) was 3.7 weight percentage and the “MeGal3 in reaction products” value ([5]; incubation time 2.2 hours) was 59.7 weight percentage. For the same molecule, the “MeGal in reaction products” value ([5]; incubation time 2.2 hours) was 18.4 weight percentage, the “Gal2 in reaction products” value ([5]; incubation time 5.0 hours) was 20.2 weight percentage and the “Gal3 in reaction products” value ([5]; incubation time 5.0 hours) was 10.6 weight percentage. The “Gal in reaction products” value ([5]; incubation time 5.0 hours) was 3.0 weight percentage, the “MeGal2 in reaction products” value ([5]; incubation time 5.0 hours) was 5.2 weight percentage and the “MeGal3 in reaction products” value ([5]; incubation time 5.0 hours) was 24.2 weight percentage. The “MeGal in reaction products” value ([5]; incubation time 5.0 hours) was 36.8 weight percentage, the “Gal2 in reaction products” value ([5]; incubation time 72.0 hours) was 36.2 weight percentage and the “Gal3 in reaction products” value ([5]; incubation time 72.0 hours) was 8.0 weight percentage. The “Gal in reaction products” value ([5]; incubation time 72.0 hours) was 17.1 weight percentage, the “MeGal2 in reaction products” value ([5]; incubation time 72.0 hours) was 4.2 weight percentage and the “MeGal3 in reaction products” value ([5]; incubation time 72.0 hours) was 0.0 weight percentage. For the same molecule, the “MeGal in reaction products” value ([5]; incubation time 72.0 hours) was 34.6 weight percentage and the “Release of MeGal versus MeGal2 from MeGal3” value ([5]; in words) was “much higher release of MeGal than MeGal2”.
